Assay results taken from publication PMC8143406.
pKd: −log10 of the molar value.

Target: T1, GST-SXL (Sex-lethal) (UniProt P19339)
T1 sequence (P19339 whole entry, looked up): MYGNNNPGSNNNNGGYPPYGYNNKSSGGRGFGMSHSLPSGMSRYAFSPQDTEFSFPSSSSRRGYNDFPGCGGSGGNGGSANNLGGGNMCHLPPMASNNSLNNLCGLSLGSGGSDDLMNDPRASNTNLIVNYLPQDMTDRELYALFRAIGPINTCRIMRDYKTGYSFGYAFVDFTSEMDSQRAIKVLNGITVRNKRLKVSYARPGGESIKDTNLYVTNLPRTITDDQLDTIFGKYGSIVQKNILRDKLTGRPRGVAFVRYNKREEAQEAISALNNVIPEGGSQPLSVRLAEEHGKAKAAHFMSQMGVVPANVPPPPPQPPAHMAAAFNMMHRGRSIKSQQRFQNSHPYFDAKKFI
Assay: EMSA
Details: EMSA as in cited refs 28 and 40, buffer, salt and pH not stated, GST-SXL at 166, 55 and 18 ng/ul, SELEX binding at 30 C for 30 min in 100 ul

[1] = within 2-3-fold of tra Py-tract

Sequence	pKd [1]	pKd
UUUUUUUCUUUUUUUUCU [TnI 5' UTR SXL-binding site RNA (cDNA SELEX clone 10-15h_5)]	9.00	–
UUUUUGUUGUUUUUUUU [tra non-sex-specific polypyrimidine tract/3' splice site RNA]	–	9.00
UUUUUUUUUCUUUUUUUUGU [Gs2 3' UTR SXL-binding site RNA (cDNA SELEX clone 10-15h_14)]	9.00	–
